Numbering of substitutions follows the chain as printed.

B1: FVM20 (antibody, V domains shown)
VH: EVQLVESGAEVKRPGESLTISCKTSGYSFTGSWISWVRQMPGKGLEWLGSIYPGDSETKYNPSFQGHVTISADKSVTTTYLKWSSLKASDTATYYCVKGSETWGQGVLVTVSS
VL: NFMLTQSASLSASPGASASLTCTFSGGINVAGYHIFWYQQNPGSPPRYLLRYKSDSEKDQGSGVPSRFSGSKDASANTGILRISGLQSEDEADYYCAIGHSSGWIFGGGTRLTVL
B2: FVM13 (antibody, V domains shown)
VH: EVQLVQSGAEVKRPGESLKISCKTSGYTFTSSWISWVRQMPGKGLEWLGSIYPGDSDTRYNPSFQGHVTISADTSIITTHLQWSSLKASDTATYYCVKGSETWGQGVLVTVSS
VL: B1 VL with N1K, F2P, S7P, A8T, H34N, F36L, N41K, P42A, E57T
B3: FVM01P (antibody, V domains shown)
VH: QVQLQESGPGLVKPSETLSLTCTVSGASISNYRWNWIRQPPGKGLEWIGEINGYSGSTNYNPSLKSRVTISKDASKNQFSLKLTSVTAADTAVYYCPIIGGFTLEWFDVWGPGVLVTVSS
VL: DVVLTQSPSSLSASVGDRVTITCRASQGIRNYLNWYQQKPRKAPKLLIYAASSLQSGVPSRFSGSGSGTEFTLTISSLQAEDFATYYCLQGYRTPFTFGPGTKLDIKR
B4: FVM32 (antibody, V domains shown)
VH: QVQLVQSGAEVKRPGESLRISCKTSGYSFTDSWVAWVRQMPGKGLEWLGSIYPGDSDTRYSPSFQGQVTISADKSITTAYLKWSSLKASDTATYYCVKGSETWGQGVLVTVSS
VL: QPVLTQPASLSASPGASASLTCTFNGGITVPGYDILWYQQKSGSPPRYLLRYKSDSTKDQGSGVPSRFSGSKDASTNTGILRISGLQSEDEADYYCAIGHSSGWIFGGGTRLTVL
B5: FVM25 (antibody, V domains shown)
VH: EVQLVHSGAEVKRPGESLTISCKTSGYTFTDYWIAWVRQMPGKGLEWMASIYPDDSDTRYNPSFQGHVTISADKSISTTYLQWSSLRASDTATYYCVKGSETWGQGVLVTVSS
VL: QLVLTQPASLSASPGTSASLTCTFSGGINVAGYNILWYQQKPGSPPRFLLRYKSDSDNVQGSGVPSHFSGSKDASTNTGILRISGLQSEDEADYYCAIGHSSGWVFGGGTRLTVL
B6: FVM18 (antibody, V domains shown)
VH: B1 VH with E1Q, E6Q, T19K, G31N, S32I
VL: NFMLTQPASLSASPGASASLTCTFSGGINVAGYHILWYQQKPGSPPRYLLRYKSDSEKDQGSGVPSRFSGSKDASANRGILRISGLQSEDEADYYCAIGHSSSGWVFGGGTRLTVL
B7: FVM21 (antibody, V domains shown)
VH: EVQLVESGAEVKRPGESLTISCKTSGYSFTDSWVAWVRQMPGKGLEWLGSIYPGDSETKYNPSFQGHVTISADKSISTTYLQWSSLRASDTATYYCVKGADDWGPGLLVTVSS
VL: B1 VL with N1S, F2S, M3E, S7P, H34N, F36L, N41K, P42A, E57D, D59G
B8: FVM19 (antibody, V domains shown)
VH: B1 VH with E1Q, E6Q, G31D, I34V, S35A, E57D
VL: B1 VL with N1K, F2P, S7P, N41K, E57D, D59G, W104L, I105L
B9: FVM17 (antibody, V domains shown)
VH: B1 VH with E6Q, G31D, L48M, E57D, T58A, K59R, V76I, T77S
VL: B5 VL with L2A, L4V, T76A, V105I
B10: FVM23 (antibody, V domains shown)
VH: B1 VH with E1Q, E6Q, L48M, E57D, K59T, V76I, T77S, T79A, K82Q, S84T
VL: SYELTQPASLSASPGASASLTCTFSGGINVAGYNILWYQQKAGSPPRYLLRYKSDSTKDQGSGVPSRFSGSKDASANTGILRISGLQSEDEADYYCAIGHSSGLIFGAGTRLTVL
B11: FVM28 (antibody, V domains shown)
VH: EVQLVQSGAEVKRPGESLKISCQTSGYRFTSSWISWVRQMPGKGLEWMGAIDPSDSETRYSPSFQGQVTISADKSISTAYLKWSSLKASDTATYYCVKGSETWGQGVLVTVSS
VL: B6 VL with N1Q, F2A, M3A
B12: FVM24 (antibody, V domains shown)
VH: EVQLVQSGAEVKRPGESLKISCKTSGYSFTDSWVAWVRQMPGKGLEWMGSIYPGDFQTRYNPSFQGHVTLSADKSISTTYLQWSSLKASDTATYYCVKGSETWGPGVLVTVSS
VL: B10 VL with Y2S, E3G, A74V, E89D, L104W, A108G
B13: FVM03 (antibody, V domains shown)
VH: QVQLQESGPVLVKPSETLSLTCAVSGYSISSAYAWSWIRQPPGKGLEWVGYVGSSSDYNPSLKSRVTISRDTSKNRIFLNLRSLTAADTAVYYCARDRANNSMDVWGRGVLVTVSS
VL: EIVLTQSPDSLGVSLGERVTINCKSSQSLLYSSNNKNYLAWYQQKPGQAPKLLIYWASTRESGVPNRFSGSGSGTDFTLTISGLQAEDVAVYYCQQYYSTPLTFGQGTKVEIKR

For the first test, the target named is T1, MARV (Musoke strain) GP (Marburg virus (MARV), Musoke strain, UniProt P35253 19-648).
T1 sequence: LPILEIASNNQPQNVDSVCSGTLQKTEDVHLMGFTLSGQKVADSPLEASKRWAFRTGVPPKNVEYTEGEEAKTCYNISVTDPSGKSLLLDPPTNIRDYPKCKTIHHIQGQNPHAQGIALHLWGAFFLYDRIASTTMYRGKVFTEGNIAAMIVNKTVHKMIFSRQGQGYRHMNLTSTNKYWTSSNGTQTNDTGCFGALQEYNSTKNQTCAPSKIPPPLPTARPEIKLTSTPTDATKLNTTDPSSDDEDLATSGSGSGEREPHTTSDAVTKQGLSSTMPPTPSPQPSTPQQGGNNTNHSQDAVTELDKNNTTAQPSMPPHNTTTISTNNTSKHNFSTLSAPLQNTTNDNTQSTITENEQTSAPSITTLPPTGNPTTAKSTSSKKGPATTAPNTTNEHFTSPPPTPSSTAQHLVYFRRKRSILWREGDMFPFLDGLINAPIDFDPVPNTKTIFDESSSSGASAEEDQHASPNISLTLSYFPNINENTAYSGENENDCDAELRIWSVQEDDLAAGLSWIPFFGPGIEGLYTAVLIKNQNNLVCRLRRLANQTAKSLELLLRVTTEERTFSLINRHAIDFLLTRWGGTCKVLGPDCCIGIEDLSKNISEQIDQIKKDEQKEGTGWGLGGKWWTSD
Briefly: GP ELISA, purified mAb. For orientation: In an ELISA, binding on a coated surface is turned into a signal by an enzyme label.
For the molecule B1, the binding result is given as “no binding”.
B2: the binding result was “no binding”.
Same read-out and setting: for B3 the value was “no binding”.

For a further test, the target named is T2, EBOV VLP (Ebola virus (EBOV), UniProt Q05320 33-676).
T2 sequence: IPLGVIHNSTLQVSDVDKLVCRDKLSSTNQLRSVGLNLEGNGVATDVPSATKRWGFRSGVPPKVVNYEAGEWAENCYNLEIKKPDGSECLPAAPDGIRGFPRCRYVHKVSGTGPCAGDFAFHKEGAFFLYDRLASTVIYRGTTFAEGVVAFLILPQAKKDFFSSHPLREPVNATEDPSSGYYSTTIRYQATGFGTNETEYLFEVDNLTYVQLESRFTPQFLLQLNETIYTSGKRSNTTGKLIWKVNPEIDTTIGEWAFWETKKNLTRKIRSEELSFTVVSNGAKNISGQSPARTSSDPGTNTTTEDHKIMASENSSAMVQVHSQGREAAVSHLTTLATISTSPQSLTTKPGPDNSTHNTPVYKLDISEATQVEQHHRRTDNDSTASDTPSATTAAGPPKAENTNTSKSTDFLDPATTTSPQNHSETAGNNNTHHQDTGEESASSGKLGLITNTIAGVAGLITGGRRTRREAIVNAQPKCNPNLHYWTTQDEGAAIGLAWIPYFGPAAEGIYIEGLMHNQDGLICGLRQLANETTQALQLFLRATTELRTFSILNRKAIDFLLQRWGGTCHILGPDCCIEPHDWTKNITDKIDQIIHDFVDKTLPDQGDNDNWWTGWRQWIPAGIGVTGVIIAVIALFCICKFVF
The experiment in a line: ELISA.
For the molecule B4, the response was half-maximal at 660 pM (EC50).
As to B5, the EC50 (as a rule, the concentration at which the effect is half-maximal) amounted to 473 pM. This EC50 and that of the molecule before are within 1.5-fold of each other.
For the molecule B1, the EC50 came to 1290 pM.
B6 gave an EC50 of 1030 pM.
As for B7, a half-maximal response (EC50) required 320 pM.
B8 gave an EC50 of 967 pM.
On the same count and under the same terms, for B9 the value was 767 pM.
For the molecule B10, the EC50 amounted to 367 pM. Against the preceding molecule, the EC50 is about 2.1-fold lower.
Same read-out and setting: for B2 the value was 198 pM; for B11, 593 pM; for B12, 513 pM.
B3 came in with a concentration for a half-maximal effect (EC50) of 459 pM.

The target of a further test is T3, MARV VLP (Marburg virus (MARV), UniProt P35253 19-681).
T3 sequence: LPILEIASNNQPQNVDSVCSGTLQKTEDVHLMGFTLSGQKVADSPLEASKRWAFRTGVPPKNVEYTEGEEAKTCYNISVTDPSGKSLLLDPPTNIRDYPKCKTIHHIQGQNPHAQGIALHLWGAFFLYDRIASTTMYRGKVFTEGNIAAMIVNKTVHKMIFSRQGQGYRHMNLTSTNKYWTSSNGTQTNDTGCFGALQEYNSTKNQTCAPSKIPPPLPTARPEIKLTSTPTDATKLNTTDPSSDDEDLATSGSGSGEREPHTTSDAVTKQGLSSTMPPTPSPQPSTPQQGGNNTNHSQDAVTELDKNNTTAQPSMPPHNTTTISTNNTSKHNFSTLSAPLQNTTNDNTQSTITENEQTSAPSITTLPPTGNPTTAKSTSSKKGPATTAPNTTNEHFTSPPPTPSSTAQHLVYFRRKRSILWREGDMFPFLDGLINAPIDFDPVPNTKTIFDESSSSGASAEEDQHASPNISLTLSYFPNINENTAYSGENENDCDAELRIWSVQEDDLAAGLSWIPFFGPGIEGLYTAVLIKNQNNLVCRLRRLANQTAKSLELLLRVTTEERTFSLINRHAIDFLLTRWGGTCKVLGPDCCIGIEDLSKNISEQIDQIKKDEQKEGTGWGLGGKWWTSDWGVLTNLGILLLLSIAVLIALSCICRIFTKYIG
The experiment in a line: ELISA.
Molecule B13 showed an EC50 of 793 pM.

A further test deals with T4, SUDV VLP (Sudan virus (SUDV), UniProt Q66814 33-676).
T4 sequence: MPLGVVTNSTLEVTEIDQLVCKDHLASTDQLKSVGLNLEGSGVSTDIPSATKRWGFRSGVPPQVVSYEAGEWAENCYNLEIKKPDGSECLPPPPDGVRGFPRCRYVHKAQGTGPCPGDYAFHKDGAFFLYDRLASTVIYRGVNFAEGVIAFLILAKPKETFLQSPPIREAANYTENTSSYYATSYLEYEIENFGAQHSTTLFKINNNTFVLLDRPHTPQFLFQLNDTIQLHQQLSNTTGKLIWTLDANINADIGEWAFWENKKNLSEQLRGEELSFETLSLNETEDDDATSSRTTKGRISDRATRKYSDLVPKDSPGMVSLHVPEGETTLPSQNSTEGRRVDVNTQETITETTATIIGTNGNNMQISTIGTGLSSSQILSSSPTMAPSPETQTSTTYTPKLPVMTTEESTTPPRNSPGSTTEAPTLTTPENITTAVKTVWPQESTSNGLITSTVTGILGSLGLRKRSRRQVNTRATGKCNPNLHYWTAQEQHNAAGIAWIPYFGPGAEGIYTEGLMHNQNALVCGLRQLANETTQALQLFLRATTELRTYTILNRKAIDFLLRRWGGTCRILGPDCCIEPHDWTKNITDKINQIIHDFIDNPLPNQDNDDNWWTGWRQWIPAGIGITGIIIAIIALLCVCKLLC
The experiment in a line: ELISA.
On to B4, for which a half-maximal effect (EC50) was put at 187 pM. This counts as sub-nanomolar.
The molecule B5 registered an EC50 of 960 pM.
Regarding B1, it took 32900 pM to reach a half-maximal effect (EC50).
Same read-out and setting: for B6 the value was 1080 pM; for B7, 373 pM.
B8 returned an EC50 of 5400 pM.
Molecule B9 yielded an EC50 of 1430 pM.
In the case of B10, the EC50 worked out at 353 pM.
B2 had a concentration giving a half-maximal response (EC50) of 144 pM. This EC50 lies about 2.5-fold lower than the previous one.
B11 gave a concentration giving a half-maximal response (EC50) of 580 pM.
B12 had an EC50 of 3200 pM.
In turn, B3 returned an EC50 of 319 pM.

The values above are taken from US20170334973A1 (INTEGRATED BIOTHERAPEUTICS, published 2017).
